Results from patent publication US20110009314A1, “Single-Chain Insulin Analogues and Pharmaceutical Formulations Thereof” (Novo Nordisk A/S, priority 2006, published 2011).

Assay: Size exclusion chromatography (SEC, gelfiltration) migration of insulin analogues and mixtures relative to the standards X2 (monomer) and HSA
Assay type: physicochemical
Conditions: D 1.2 mM, Zn 0.6 mM
Experimental: Migration of the insulin analogues and insulin analogue combinations were measured in relation to the standards mentioned below.
The test mixtures were formulated with conventional pharmaceutical adjuvants and additives. All mixtures were formulated with 16/16 mM phenol/cresol. Zinc was added as zinc acetate in various amounts. pH was 7.5.
Size exclusion chromatography (SEC) was performed essentially as described in Havelund et al. 2004 Pharmaceutical research, 21, 1498-1504. The chromatographic system was a Superose 6 HR PC 6/30 column (GE healthcare) eluted by tris-buffered isotonic saline (NaCl-140 mM, tris/HCl 10 mM, NaN3 0.01%, pH 7.5 at 37° C., injecting 1% of column volume and using a flow of 90 min per column volume and UV detection at 276 nm. The references were a stable insulin monomeric insulin X2 (AspB9, GluB27 human insulin, zinc free), a stable hexameric insulin: Co(III) insulin, albumin (HSA), and covalent albumin (formed in solution).

Substance: Lys^B29(N^ε-(N-lithocholyl-γ-glutamyl)) des(B30) human insulin [Compound D]
- Measured SEC migration % HSA: 78%
- Measured SEC migration % X2: 15%
